The values below come from PMC10999750, “Structural basis for nuclear import of bat adeno-associated virus capsid protein” (The Journal of General Virology, 2024).

Where no end group is shown, it is not given here. The star is where a group is joined. FITC = O=C1OC2(c3ccc(O)cc3Oc3cc(O)ccc32)c2ccc(NC(=S)*)cc21; Ahx = NCCCCCC(=O)O

The target of assay [1] is T1, Mouse importin α2 lacking the IBB domain (mImpα2DIBB) (mouse, UniProt P52293 70-529). Description: fluorescence polarisation; FITC-tagged peptide ('2 nm' [sic]) with importin two-fold serially diluted from 4.5 µM across 23 wells, 200 µl, GST Buffer A (50 mM Tris, 125 mM NaCl); three independent experiments. The conditions noted are these: both partners purified. (In general: Polarisation of emitted light reports the rotation of a fluorescent probe.)

The target of assay [2] is T1, Mouse importin α2 lacking the IBB …. Description: crystal structure; co-purified complex of AAV 09YN Cap-BR and IMPα2; hanging drop, 0.75 M Na citrate, 0.1 M HEPES pH 7.5, 22 °C; 2.4 Å. The conditions noted are these: both partners purified.

B1: Synthetic FITC labelled AAV 09YN Cap-BR peptide (residues 117-167) (peptide)
peptide: {FITC-Ahx}-QAKKRVLEPFGLVEGEPEPKKTPSVKRPHASPDSSSGVGKKGDQPARKRLD
notes: also called FITC-tagged AAV 09YN Cap-BR peptide; non-mutated 09YN Cap-BR; source: synthetic peptide (GenScript)
In assay [1], B1 showed a Kd of 656 nM. This counts as sub-micromolar.

B2: AAV 09YN Cap-BR (N-terminal domain fragment of AAV 09YN VP1 encompassing basic regions 1-3, residues 112-169) (domain or fragment)
chain: ANALFQAKKRVLEPFGLVEGEPEPKKTPSVKRPHASPDSSSGVGKKGDQPARKRLDFG
notes: not shown: GST, N-terminal, cleaved
With B2, the binding result in assay [2] is “binds”.

The Kd is the constant that tells how readily two partners part at equilibrium. A higher Kd goes with lower affinity.
